The target of assay [1] is T1, silk fibroin, sericin-depleted, from degummed Bombyx mori silk (dissolved in 9.3 M LiBr, dialysed, then gelled or precipitated) (Bombyx mori), P05790. Put plainly: HPLC of 23RGD extracted from lyophilized silk precipitate, formulation SCLO.
Assay [2] deals with T1, silk fibroin, sericin-depleted, from …. Put plainly: HPLC of 23RGD extracted from the final rinsed 23RGD-enhanced silk gel.
Assay [3] shares this target. As to the kind of experiment: HPLC of 23RGD extracted from lyophilized silk precipitate, formulation printed as RLO.
The target is the same in assay [4]. Put plainly: HPLC of 23RGD extracted from lyophilized silk precipitate, formulation AVLO.
The target is the same in assay [5]. As to the kind of experiment: HPLC of 23RGD extracted from silk precipitate, formulation BASE, against the calculated molar ratio.
For assay [6] the target is unchanged. Put plainly: HPLC of 23RGD extracted from silk precipitate, formulation SCLO, against the calculated molar ratio.
The target is the same in assay [7]. Put plainly: HPLC of 23RGD extracted from lyophilized silk precipitate, formulation 0.6S 3R 10:1.
Assay [8] has the same target. Put plainly: HPLC of 23RGD extracted from lyophilized silk precipitate, formulation BASE.
For assay [9] the target is unchanged. As to the kind of experiment: HPLC of 23RGD extracted from silk precipitate, formulation printed as RMED, against the calculated molar ratio.
Assay [10] shares this target. Put plainly: HPLC of 23RGD extracted from lyophilized silk precipitate, formulation SCVLO.
The target is the same in assay [11]. As to the kind of experiment: HPLC of 23RGD extracted from lyophilized silk precipitate, formulation printed as RMED.
The target is the same in assay [12]. As to the kind of experiment: HPLC of 23RGD extracted from lyophilized silk precipitate, formulation RHI.
Assay [13] has the same target. Put plainly: HPLC of 23RGD extracted from lyophilized silk precipitate, formulation AVHI.
Assay [14] has the same target. Put plainly: HPLC of 23RGD extracted from silk precipitate, formulation ECLO, against the calculated molar ratio.
Assay [15] has the same target. Put plainly: HPLC of 23RGD extracted from silk precipitate, formulation AVLO, against the calculated molar ratio.
Assay [16] shares this target. Put plainly: HPLC and dry mass of silk precipitates, over all formulations.
Assay [17] has the same target. Put plainly: HPLC of 23RGD extracted from silk precipitates; plateau over the formulations.

We go through 1 molecule from patent US20110008406A1.

B1: 23RGD peptide (amphiphilic peptide: RGD motif, spacer region, leucine tail; 23 amino acids) (peptide)
peptide: GRGDIPASSKGGGGSRLLLLLLR
modifications: not checked
Consider B1, for which the 23RGD:silk ratio (bound) (mol 23RGD per mol silk) is 9.9 in assay [1]; 1.1 in assay [3]; 5.2 in assay [4]; 10 in [7]; 8.7 in [8]; 11 in [10]. In addition, the 23RGD:silk ratio (bound) (mol 23RGD per mol silk) stood at 6.95 in assay [11], 10.7 in assay [12] and 10.5 in [13]. Also, the 23RGD:silk molar ratio (bound) (mol 23RGD per mol silk) in assay [2] came to 3.35. Moreover, the bound RGD, fold of the calculated (expected) amount in [5] is 2 fold; in assay [6], 2 fold; in assay [9], 2 fold; in [14], 1.5 fold; in assay [15], 2 fold. The molecule also displayed a percent of 23RGD precipitated with silk in assay [16] of 5 to 30%. Also, in [17], the apparent saturation, RGD molecules per molecule of silk (mol 23RGD per mol silk) was found to be 10.
